In the DeepSol protein solubility set:

Assay: soluble on expression in E. coli; label from the status in PepcDB or PDB records

Soluble on expression in E. coli, soluble:
MAEIEKTVLVGYSASQMFRLVDTVENYPDFLPWCSGASMKLMEDNETAQATVHIDYHHIKHSFTTKNTRHPPELIKMELVEGPFEKLNGYWRFIPLSENACKIEFQLHYTFSHKLLEKLVGPVFYVIANNFVEAFVEQAEKIYGPSILEHHHHHH
MDNHKCVLVIDKALPQGLIANTAAVLTLSLGKLHPELIGADNVNKNGEIHTGITSIPIPILASSSHKIKEIRASLKEEATLVDFSNVAQTTKNYQDYSDKLAATRPEDIEYLGIAIYGTKKIINKHTGNLGLIRLEHHHHHH
GPGSMKPLRIKKRESAGTPAEDEALTGLTSSASSVAAGSLAPRHVPSPPAVKGGRLPAHPGHDSGPSPAAATPAPTAKVSAAVKFSSELDNAAVEAYLEYLTHPHMSWESASRHVAHCREVIEEHRNSIYARSLAMLRRSSFASTIGSEGGDLDALETSTTSSVASAPAGFPRTAPNGSNKATGTLRKGRLGDAGSPLLPSDAAEPLAIVAHSSAAVSSSHSADSASCTSTGTGQRAPSNKGRLLRGPALAGPPRPHRTSSSATAPAAVGESVLGVGGAKLLGGSGSVFLVNGRSSAVTSRTASRDSTDRLPPVAPQGGGESLIHCKRTGGARAAVPSPQPKHRLK
SAEASSANLGSGCEEKRHEGSSSESVPPGTTISRVKLLDTMVDTFLQKLVAAGSYQRFTDCYKCFYQLQPAMTQRIYDKFIAQLQTSIREEISDIKEEGNLEAVLNALDKIVEEGKVRKEPAWCEAQRCRVQQRCSLCVQAGGQRGSEETQALPVSMAGSPSPLPGSPGAQEGGV
MTEDALNRIADALERMAPAPLRAPDFAVAPAFVWHVAPERLEPVRDVNRVDLDLLVGINRARDTLLDNTRRFAAGHGANNALLWGARGMGKSSLVKAVHGALQPEFPNLKLVELQREDLPSVARLLNHLRAAPERFILFCDDLSFSHDDQHYKSLKAVLDGGIEGRPENVVFYATSNRRHLMPRDMIENERSSAINPSEAVEEKVSLSDRFGLWLGFHPCDQDEYLAMIDGYCAAYGVSVAPDTLRAEAIEWQATRGARSGRVAWQFFTDLAGRQGIALRLEHHHHHH
DQGIVIYNAQHENLVKSWVDGFTKDTGIKVTLRNGGDSELGNQLVQEGSASPADVFLTENSPAMVLVDNAKLFAPLDAATLAQVEPQYRPSHGRWIGIAARSTVFVYNPAKLSDAQLPKSLLDLAKPEWKGRWAASPSGADFQAIVSALLELKGEKATLAWLKAMKTNFTAYKGNSTVMKAVNAGQVDSGVIYHYYPFVDGAKTGENSNNIKLYYFKHQDPGAFVSISGGGVLASSKHQQQAQAFIKWITGKQGQEILRTNNAFEYAVGVGAASNPKLVPLKDLDAPKVDAAQLNSKKVVELMTEAGLL
MSLEEWIKADSLEKADEYHKRYNYAVTNPVRRKILRMLDKGRSEEEIMQTLSLSKKQLDYHLKVLEAGFCIERVGERWVVTDAGKIVDKIRG
MARNAEKAMTALARFRQAQLEEGKVKERRPFLASECTELPKAEKWRRQIIGEISKKVAQIQNAGLGEFRIRDLNDEINKLLREKGHWEVRIKELGGPDYGKVGPKMLDHEGKEVPGNRGYKYFGAAKDLPGVRELFEKEPLPPPRKTRAELMKAIDFEYYGYLDEDDGVIVPLEQEYEKKLRAELVEKWKAEREARLARGEKEEEEEEEEEINIYAVTEEESDEEGSQEKGGDDSQQKFIAHVPVPSQQEIEEALVRRKKMELLQKYASETLQAQSEEARRLLGY

Soluble on expression in E. coli, not soluble:
MVNFTVDEIRALMDRKRNIRNMSVIAHVDHGKSTLTDSLVSKAGIIAGSKAGETRFTDTRKDEQERCITIKSTAISLFFELEKKDLEFVKGENQFETVEVDGKKEKYNGFLINLIDSPGHVDFSSEVTAALRVTDGALVVVDCVSGVCVQTETVLRQAIAERIKPVLFMNKMDRALLELQLGAEELFQTFQRIVENINVIIATYGDDDGPMGPIMVDPSIGNVGFGSGLHGWAFTLKQFAEMYAGKFGVQVDKLMKNLWGDRFFDLKTKKWSSTQTDESKRGFCQFVLDPIFMVFDAVMNIKKDKTAALVEKLGIKLANDEKDLEGKPLMKVFMRKWLPAGDTMLQMIAFHLPSPVTAQKYRMEMLYEGPHDDEAAVAIKTCDPNGPLMMYISKMVPTSDKGRFYAFGRVFSGKVATGMKARIQGPNYVPGKKEDLYEKTIQRTILMMGRFIEPIEDIPSGNIAGLVGVDQYLVKGGTITTYKDAHNMRVMKFSVSPVVRVAVEAKNPADLPKLVEGLKRLAKSDPMVQCIFEESGEHIIAGAGELHLEICLKDLEEDHACIPLKKSDPVVSYRETVQSESNQICLSKSPNKHNRLHCTAQPMPDGLADDIEGGTVNARDEFKARAKILAEKYEYDVTEARKIWCFGPDGTGPNLLMDVTKGVQYLNEIKDSVVAGFQWATREGVLSDENMRGVRFNVHDVTLHADAIHRGGGQIIPTARRVFYASVLTAEPRLLEPVYLVEIQCPEAAVGGIYGVLNRRRGHVFEESQVTGTPMFVVKAYLPVNESFGFTADLRSNTGGQAFPQCVFDHWQVLPGDPLEAGTKPNQIVLDTRKRKGLKEGVPALDNYLDKM
MDRATVVGGAARRLAMIAVIIPAHNEAECMAACLASVFLAASHPELREPVEVIVAVDRCTDATAALAQALGARVIDVPVPGGVGIARAAAASKAIALGADWLAVTDADSRVPADWLVEQRRADADVFCGVVQVEDWLDYSDEVRCRFEQTQATGQGHGRIHGANLGVSAALYQQCGGFPAVTCSEDVALVHALQAINASIAWSPRSVVWTSARRQARAIGGFSDFLKKLEASTCVPALEHHHHHH
MGSDKIHHHHHHMMLGPEGGEGYVVKLRGLPWSCSIEDVQNFLSDCTIHDGVAGVHFIYTREGRQSGEAFVELESEDDVKLALKKDRESMGHRYIEVFKSHRTEMDWVLKHSGPNSADSANDGFVRLRGLPFGCTKEEIVQFFSGLEIVPNGITLPVDPEGKITGEAFVQFASQELAEKALGKHKERIGHRYIEVFKSSQEEVRSYSDPPLKFMSVQRPGPYDRPGTARRYIGIVKQAGLDRMRSGAYSAGYGGYEEYSGLSDGYGFTTDLFGRDLSYCLSGMYDHRYGDSEFTVQSTTGHCVHMRGLPYKATENDIYNFFSPLNPVRVHIEIGPDGRVTGEADVEFATHEEAVAAMSKDRANMQHRYIELFLNSTTGASNGAYSSQVMQGMGVSAAQATYSGLESQSVSGCYGAGYSGQNSMGGYD
MGSDKIHHHHHHMKRSIEDTPVVFLGAGNLATNLAKALYRKGFRIMQVYSRTEESARTLANEVEAEYITDLKDVSNEARLYIISLKDAAFVELLPQITDGKQHALLVHTAGSIPMNIWEGHAERYGVFYPMQTFSKQREVDFREVPFFIEAKRPEDTELLKAVAGTLSDKVYEADSEQRRSLHLAAVFTCNFTNHMYALAAELLEKYHLPFDVMLPLIDETARKVHELAPRDAQTGPAVRYDENVMNKHLSMLADSQALQEIYKLMSKSIHEHHQL
MEARPRVAGIVLAAGKSTRMGRPKQLLPFRGRTVLECVVDNALASRLHRVVVVLGHEAEAVMPLLGHRCVTTVVNPLYGEGQSSSLKAGLGAMTEETDAALFLLGDQPLVTADTINLLIAAFADFPSPIVIPTFEGHRGNPVLFSRETFPRIEALSGDRGARGLFREYGDDIRSIDVRTPAILFDLDTEEDYLRLLREFPAVLEHHHHHH
MGSDKIHHHHHHMLISSRIVRSSLVNVPLRLSRCFTQAHRACKEEEVNSPLSSAAEQPEQKYTHFGSKTVLKSTKQKLVGDVFSSVANRYDLMNDVMSLGIHRLWKDHFINKLDAGKRPNSTTPLNFIDVAGGSGDIAFGLLDHAESKFGDTESTMDIVDINPDMLKEGEKRAMEQGKYFKDPRVRFLVSNGEKLEEIDSDSKDIYTVSFGIRNFTDIQKGLNTAYRVLKPGGIFYCLEFSKIENPLMDFAYQQWAKVLPVMGSMIANDYDSYQYLVESIERFPDQETFKSMIEKAGFKSAGYESLTFGICAIHWGIKV
MDMLKENVIQNNEARTESSVEPSHPDMMETVPEEQQKPISHIDDLLSETANLMAVKEQLLKEIAENEHIHSMQMRALQNLPQEAILPLQYHADPRRRHRMQKPESYKTVICQAWLESKTCAFAENCRFAHGEEELRPSLIEARQNNKYRTKLCDKYTTTGLCPYGKRCLFIHPDNGPNAYIRADKLFEVSQRHALADLRDQMEHHIMNGGRSTAGPQQFDMFARPCTPDEPAANMPLGPTPVSIRGPRYELPSKKPLETEEAGNRPPSSWPLDPSTFFALDSLNMATRPISPFESMLIGAAGNMQYSMLGKQSTPGGVSGYSSSGSTPSQDSDSSPLTAASAAADAACQANSESAQSILLKSINNPMIGNETTLPIPGLDQLAMDIAKHLELW
MGSDKIHHHHHHMITTEAWVLYAGPEQTKKHAPVPGELRRETFQFAGLEDDEALVEPLYGSWEANLDHALSRNPVDICRQRGEEKIVLGNGALVRVVDRGRGAKHPEIGEICMVMPFGKRDQYGFAELVYAYDAPGTIGVMARRTKIRADNLVPVPKGSRHSLLQWATYGRYFTAWDNWKVASKCWRAQLPDVDPADYLVFGWGGGTTLAELQLAKREGFRVAMTASGDKRLADIEKLGITPVDRRRFPHLAYDEERYRSDPEYQAHYRASESAFAEIIGELSGGRGVAIFLDNLGGALYRATMRVIGRTGIVATVGWKTGMRLWNLRATECINRRLHIHTHAWRYDDSEAIRDFQESSDWVGPEPTEIYGFDDVPALASDYVNGKIKTYFPLYQVNPV
MGSDKIHHHHHHMFKKYDAYLVGYYGMQNSGDDALMYATAWAAKNILGCNNTKVGLYGDYARETQSDNQLPLKFTQQFPGQNRLLHYKTAIQSKRIIFGGGSVLHSESDINLKRQLMSLANQKKSLAVGIGIGPFNSVMAEKSCAKFLNECGYVGVRDNASLAIARNIAPHANVHKTFDLAPLLLCSKQYKPSNRERQGIALTLCSVAIDAMGNTDELEEEKRVEQFVQLITKIYARTGEPITLIEFNGHNVLGDWKINNNIITRLLDKYIPVSIKKYDPNPIALLNKLSGYKAIVSMRLHGSILGYLANTPVLSINYHSKCKGWCDEVGMPEDYKIDLFNLNIEKIVSQIALGVSTTFQQPTLSINNALKNSLSNWSTQNEQFKFYRNYSTV
MGNDKRSQIFTLSRYAGILRRCLKENAMSAQKPGLHPRNRHHSRYDLATLCQVNPELRQFLTLTPAGEQSVDFANPLAVKALNKALLAHFYAVANWDIPDGFLCPPVPGRADYIHHLADLLAEASGTIPANASILDIGVGANCIYPLIGVHEYGWRFTGSETSSQALSSAQAIISSNPGLNRAIRLRRQKESGAIFNGIIHKNEQYDATLCNPPFHDSAAAARAGSERKRRNLGLNKDDALNFGGQQQELWCEGGEVTFIKKMIEESKGFAKQVMWFTSLVSRGENLPPLYRALTDVGAVKVVKKEMAQGQKQSRFIAWTFMNDEQRRRFVNRQRLEHHHHHH
MKTQQREQALAIYQQHQGKITNRAIADTIGVSAKTIGIWKKQDKWKEALFSASKNEQKQRPINNDELNERQRLFCLYYVKSFNATQSAIKAGYSPDSAHVTGSRLLKNEKVAAEIRRIKKEMVNEMFIEAMDVLQVYIKIAFADITDYVTFGKKEVQAVGKSGPLFDEDDNPIMKEISFVDVKDSGLVDGTIVTEAKLGKEGIAIKLADKMKALEKLSLYFDLFPDQFKQKIENEKLKLAKQKAEKTDDSQEPIEIMIKRKERKS
